Source: the DeepSol protein solubility set

Assay: soluble on expression in E. coli; label from the status in PepcDB or PDB records

| Sequence | soluble on expression in E. coli |
| --- | --- |
| MAHHHHHHMEDAYAGLCSQSVFEPKMDFTLCINKSIKLFLKDINISKYDKNNVDNKKDVNTSDTKVIETSNDQNQNNQNDQNDQQSDILNNQHLLKENEAFLNGYLYFSRIGHNINLLLNELSSIKKDFRFLNKETRKKIKKFKQVKNKNIIYKDLLQDIKEKRKRKEIYEKLSIEIKKLDEVKKVQEKQKIEKDEINNLEHKILNIENIIKSNNDHIQETINQINKIVSENIQI | not soluble |
| MDIPIPTRQLFINGDWKAPVLNKRIPVINPATQNIIGDIPAATKEDVDVAVAAAKTALTRNKGADWATASGAVRARYLRAIAAKVTEKKPELAKLESIDCGKPLDEAAWDIDDVAGCFEYYADLAEKLDARQKAPVSLPMDTFKSHVLREPIGVVGLITPWNYPMLMATWKVAPALAAGCAAILKPSELASLTCLELGEICKEVGLPPGVLNILTGLGPEAGAPLATHPDVDKVAFTGSSATGSKIMTAAAQLVKPVSLELGGKSPLVVFEDVDLDKAAEWAIFGCFWTNGQICSATSRLILHESIATEFLNRIVKWIKNIKISDPLEEGCRLGPVVSEGQYEKILKFVSNAKSEGATILTGGSRPEHLKKGFFIEPTIITDVTTNMQIWREEVFGPVLCVKTFSTEEEAIDLANDTVYGLGAAVISNDLERCERVTKAFKAGIVWVNCSQPCFTQAPWGGVKRSGFGRELGEWGLDNYLSVKQVTQYISEEPWGWYQPPAKL | soluble |
| MVLETTSSRDGEIKLTVDQMLGKLARWIRLMGYDVYYPSGTVPDDEIITKSRSEGRIIITRDYGMYQKYPMSIFEPYDDINDQLRDFIAHFSSRMKDRFMRCPVCNGRLVKLRSKIPEYLRNHRDVYICTGCHKMYWKGSHYRRIYRKIENLRPKGE | soluble |
| QVQLQESGGGLVQAGGSLRLSCTASRRTGSNWCMGWFRQLAGKEPELVVALNFDYDMTYYADSVKGRFTVSRDSGKNTVYLQMNSLKPEDTAIYYCAARSGGFSSNRELYDGWGQGTQVTVSS | soluble |
| FNKDGKFKIVQFTDVHFKYGNPASDVALERIGEVLDAEHPDLVIFTGDVVYSSPADKGMLQVLGQVERRHLPFVVTFGNHDNEQGKTRAELYDLIRGVAGNLLPDRGASPSPDYILTMKSSADASKDAALLYCMDSHSYSSLKDVDGYAWLTFGQVSWYRAQSAAYTARNGGKPYPALAFFHIPLPEYNEAAANENAILRGTRMEKACAPQLNTGMFAAMKEAGDVMGVFVGHDHDNDYAVMWKNILLAYGRFTGGNTEYNHLPNGARVIVLNEGTRTFETWIRQKGGVVDSTSYPSDYVKDDWRKR | not soluble |
| NKVNDESVEYFGQRNEFRQASDFMEERISGMTNISIAIKTNESQGIAAPDFLNTIGEFSSWLRDQPETDHVATLADVYKRLNKNMHGDDEAYYLLPQERELAAQYLLLYEMSLPYGLDLNNQINVDKSSIKMVLTVANLGSVELVDLENRIYQWFAEHAPQYQVVASSPSLMFAHIGETN | not soluble |
| MELFKEISQEESNKDSKENDNINEEIDIEQLKDKVKDLELQLEYEIKQHNVEIAEREETIKILETRIQELEHYKNDITEKDEAIINMSEKLLILSNKYDILVKESKLQEEELKHFKNKKKYRNDKTNEYILGLRNQNDEIKKEHELLNEKYAQLVKEYAILQNSCKVLNEQLENNQKNMELLIKEKSNNLDEKTAIKILNIGSKELIHKRVHNKNVDELSNLKLELEYKDMILNKLMRKQVSEGKTIKVEYTNNENKFENEKKLGEMYQKYLDSVCDNDNLKKEINKLHNKINDMKVEEEEHLKTISILRDYINKMYKEDVNINQFDDLINNILKDNTSLNEELSKQKRKNMADIYYFTKELQIVKKDKFKIIEKFDSKKVTNIPHLYEPLNLTLSKENNKREISDDDDDNKGPKGDLNFLKKNSDINCSESNIKKPLKTNDLVHIYMQDYMNNVQNKA | not soluble |
| MAASRALSLTAEAVRAVIPRRSGRLLTRWETTSSIPEAGEGQIRLTDSCVQVGGRTRGGGAQEGSRRLPSHPSRYLRLLGILDPLS | not soluble |
| MTVRIAINGFGRIGRNVVRALYESGRRAEITVVAINELADAAGMAHLLKYDTSHGRFAWEVRHEREQLFVGDDVIRILHERTLADLPWRELGVDVVLDCTGVYGNREHGEAHIAAGAKKVLFSHPGSNDLDATVVFGVNQNQLRAEHRIVSNASCTTNCIIPVIKLLDDAYGIESGTVTTIHSAMNDQQVIDAYHSDLRRTRAASQSIIPVDTKLAAGITRIFPQFNDRFEAIAVRVPTINVTAIDLSVTVKKPVKASEVNQLLQKAAQGAFHGIVDYTESPLVSIDFNHDPHSAIVDGTQTRVSGAHLIKTLVWCDNEWGFANRMLDTTLAMAAVGFRLDASASTKL | not soluble |
| MNHTEIRVVTGPANYFSHAGSLERLTDFFTPEQLSHAVWVYGERAIAAARPYLPEAFERAGAKHLPFTGHCSERHVAQLAHACNDDRQVVIGVGGGALLDTAKALARRLALPFVAIPTIAATCAAWTPLSVWYNDAGQALQFEIFDDANFLVLVEPRIILQAPDDYLLAGIGDTLAKWYEAVVLAPQPETLPLTVRLGINSACAIRDLLLDSSEQALADKQQRRLTQAFCDVVDAIIAGGGMVGGLGERYTRVAAAHAVHNGLTVLPQTEKFLHGTKVAYGILVQSALLGQDDVLAQLITAYRRFHLPARLSELDVDIHNTAEIDRVIAHTLRPVESIHYLPVTLTPDTLRAAFEKVEFFRI | not soluble |
| MGKTFTVGSLKHAVRSSERPISAAPPKPDGPSAVRPSVIQIEQKGKTFTVQPAPGVSLLDAALGQGVLLDHKCKKGTCGRCMVTVLAGAHLLAPKTRREREKTDQPAKRLACQAQIQ | not soluble |
| RDFNNLTKGLCTINSWHIYGKDNAVRIGEDSDVLVTREPYVSCDPDECRFYALSQGTTIRGKHSNGTIHDRSQYRALISWPLSSPPTVYNSRVECIGWSSTSCHDGKTRMSICISGPNNNASAVIWYNRRPVTEINTWARNILRTQESECVCHNGVCPVVFTDGSATGPAETRIYYFKEGKILKWEPLAGTAKHIEECSCYGERAEITCTCRDNWQGSNRPVIRIDPVAMTHTSQYICSPVLTDNPRPNDPTVGKCNDPYPGNNNNGVKGFSYLDGVNTWLGRTISIASRSGYEMLKVPNALTDDKSKPTQGQTIVLNTDWSGYSGSFMDYWAEGECYRACFYVELIRGRPKEDKVWWTSNSIVSMCSSTEFLGQWDWPDGAKIEYFL | soluble |
| GPGSMAAIGGGSGDIEELLKQITNHPGVQGIIIVNTDGIPIRHTFQEHSRLLAVQYSALFQSLAMKARNAVLEIDNNNELLFLRVRTKKHEVLVAPDTKYLLIVIQQVESGDAVPNANGVSA | not soluble |
| MLTIAMPKGRIFEEAVELLRRGDYALPPEFTESRKLVIDVPEENMRFILAKPMDVVTYVEHGVADLGIAGKDVLMEEERDVYELLDLQISRCHLAVAGLPGAKMNEIAPRVATKYPNIASTYFREQGEQVEIIRLNGSIELAPLIGLADRIVDIVSTGRTLRENGLVELERIAEVTSRLIVNPASYRLNGGDIERLVDRLAAVIPQP | not soluble |
| GPLGSALEIAEQLTLLDHLVFKSIPYEEFFGQGWMKAEKYERTPYIMKTTKHFNHVSNFIASEIIRNEDISARASAIEKWVAVADICRCLHNYNAVLEITSSINRSAIFRLKKTWLKVSKQTKSLLDKLQKLVSSDGRFKNLRESLRNCDPPCVPYLGMYLTDLVFIEEGTPNYTEDGLVNFSKMRMISHIIREIRQFQQTTYKIDPQPKVIQYLLDESFMLDEESLYESSLLIEPKLPT | soluble |
| MGSDKIHHHHHHMYLESIELYSNITKAAAHLFISQPYLSKVIKQLENELEIKLIQSQGHQTFLTYAGQRYLFYLKEIDMIERQMAKELYLIRSDKKGEITLGINSGLASSILANVLPKFNLEHPEISVKLLENNQNISEQLVASGDIDLAVGMAPILYKDGIASTTIYRDELFLMIPTTSQLYNAEKRGQIIPFEYPISVLDNEPLILTPLEYGIGKTIAQFYELHHMSLNQMITTSTVPTAASLSLSGMGATFVPQTLIHRYLDKECNVYHFHKNKLFSEYIMIYKKDVELSGIALLLYKAFLTK | not soluble |
| MTKMLKLFDAHFHIIDYRFPLITNQSYLPPEFTVEDYLQRAKPLNICGGAVVSGSFQAFDQSYLLAALSILGSDFVGVTQLPATVSDEEIIQLNQKGIRAVRFNVKRGGSENIHRLKYFAHRIYEMVRWHVEIYVDSKDLGDLTSLLLELPAVSIDHLGLSHSGFSQLLHLVEHGIKIKASGFGRVDFDVKKALQTIAQINPDALLFGTDLPSTRAPRPFLDSDIQIIQDLFDEKLTEKILYRNARNFYSKNSSELEHHHHHH | not soluble |
| MTKVTEHLEKQLAENRVKQEEARRAREEEKQRSDNAFNNAERAFERKLEEQRKENQENQKELELEMDNSRLKHEMLYREKQKEHEDVMGAMRNASSAERSAAANMHEKELNLLRKTHESEMKNCEVQMEAIRQKGEREVRDVEDQMAKLHLERGAELDKHHKKMLKMVEKSHEDCTREKVKQHALKMLEMKNEGQRKAIEHKIVMEKLEQARGMSQRLAVNEANREVYRLFMAIMEPVNEARSNLGDIKALCDNNGEDYEDSDTACAEYYSSGIGNSRSIFDIRTNAFRDFVLNQPNCDHELVIACQTAINSMKKPMESTTIRSACTTLPRFMGEQRHLRITAILQNIDDLTSTLEAISDDVRLNFVSWKQLEIVEAVVEQKTIEKE | soluble |
| MMNQLRVTRKEPVKIRIQRKTSQNHAKGIEEMEMAVAVGVKMGQDAVEGNWKRKIIPKKTAIREILKSDEEITVRHLKIGLKSRRLPSCLIRKEPKDNNVSYEETGEGEYFEEENRKNSNNANSSNSRNTGRGNKGGKERESLNDNESSNEETEGRRSVKKTNTLNEDNNGNSIRKESNLSNDEETDEVVDTHRINTEDDEEDEEKPPTEKGTPKRKDRKSDSRSTSKGFGSGGRGRAEYTEDGDDDESNRRSVNFEKDGNGRMVKTETERSSTHAQDYDKKGSKKKKHRVSENGSEEEEVSTSFSSSSSKSSSSSSLSRRTTWDGNNNNTNRRRRNRFD | not soluble |
| MGSDKIHHHHHHYKKKFSGEILCAALWGVNLLIGTDSGLMLLDRSGQGKVYPLISRRRFDQMTVLEGQNILATISGRKRRIRVYYLSWLRQKILRTEGAGSANTTEKRNGWVNVGDLQGAIHFKIVRYERIKFLVVGLESSIEIYAWAPKPYHKFMSFKSFGSLSHVPLIVDLTVEDNARLKVLYGSTGGFHAIDLDSAAVYDIYTPAQSGQTTTPHCIVVLPNSNGMQLLLCYDNEGVYVNTYGRMTKNVVLQWGEMPSSVAYISTGQIMGWGNKAIEIRSVDTGHLDGVFMHKKAQKLKFLCERNDKVFFSSAKGGGSCQIYFMTLNKPGLTNW | not soluble |
| MAHHHHHHMLTSENPAERAGQAGQAIRPPPSPVPDGTRPSDSSRGDSSVSPLSTTGISSSSALDAPIVQSTQPSEKGLRSETISLGTALPNEQPKERSESKAKQGSSTSEEVAESPDDSGDAVEKEKKGDVGPKATTSLSSTTSNPPVTQTTPRASSAEPPPTETELQTGEETSTENVTITKRNNTTTPGDSDGSTAVSHTTSPLLLLLVVVECAAAAAVVAA | soluble |
| MMSIFRKLMPREDRFFDMFSKHSETVIKAAAALDQLLSGIDVEKNCDLIVALENQADDITREVLLAVRRSFITPFDRGDIKDLIQSMDDAIDMMHKTVKTIRLFEQSEFDPLMKEMGHEIVRAAGLIAEAIPLLNKVGANAQRLSAIAEEVTRVEGRSDDLHDQGLKDLFRRHGANGNAMAYMIGSEIYGELEKVVDRFEDVANEISGIVIENVLEHHHHHH | soluble |
| NKDFWIKGMGNFTLAKGRYEVYEEPDYASYGQGYRSRIGQPINFNYGYIAERLFIDENDVANSPSQTSFNGGAMPGDIKYKDLNNDGKITSEDQIFLGYPNQPEITYGFGFSTGYKGFDLSMFFQGNARVSFFIDPRNTSPFVNYDAGGKTGVQQCLDVIAKDHWSEDNRNIYAFWPRLSPTLVENNMQTSTWWMHDGSFIRLKTVELGYTFSQKALKKIGVQSLRLYLTGSNLLTFSKFKLWDAEMGNNGLGYPIQRVYNLGININF | not soluble |
